Measurements: patent US20250152742A1, “COMPOSITIONS AND METHODS FOR NEUROLOGICAL DISEASES” (Trames Bio, Inc., priority 2022, published 2025)
Where a chain is given by its changes, count along the chain named. In names and notes the source's numbering stands.

Test system: engineered chimeric receptor SEQ ID NO: 33 and its mutants (human α7-nAChR ligand binding domain / human GlyRα1 ion pore domain) in Lenti-X 293T cells
Assay: YFP fluorescence quenching anion reporter plate reader assay (percent quench, EC50)
Format: cell-based
Conditions: for YFP fluorescence quenching using CNL001 (percent quench): receptor named in row; for YFP fluorescence quenching using Facinicline, 30 nM fac: ligand Facinicline 30 nM; for YFP fluorescence quenching using Facinicline, 300 nM fac: ligand Facinicline 300 nM; for YFP fluorescence quenching using Facinicline, 10 uM fac: ligand Facinicline 10 uM; for YFP fluorescence quenching using Facinicline, 30 uM fac: ligand Facinicline 30 uM; for YFP fluorescence quenching using TC-6987, 1 uM tc6987: ligand TC-6987 1 uM; for YFP fluorescence quenching using TC-6987, 10 uM tc6987: ligand TC-6987 10 uM; for YFP fluorescence quenching using TC-6987, 500 uM tc6987: ligand TC-6987 500 uM
In short: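 Percent quench compares mean YFP signal over the final 10 s with the 15 s baseline before ligand, added in iodide-containing extracellular solution (pH 7.2). Cells were LX293T carrying a YFP anion reporter, transiently transfected with the channel construct; plates were preincubated 30 min at 37 °C.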

[1] = 1 nM CNL001, first column so headed
[2] = 1 nM CNL001, second column so headed
[3] = 1 nM brd (TC-5619/Bradanicline)
[4] = 3 nM brd (TC-5619/Bradanicline)
[5] = 10 nM CNL001, first column so headed
[6] = 10 nM CNL001, second column so headed
[7] = 10 nM brd (TC-5619/Bradanicline)
[8] = 50 nM CNL001, first column so headed
[9] = 50 nM CNL001, second column so headed
[10] = 100 nM CNL001, first column so headed
[11] = 100 nM CNL001, second column so headed
[12] = 100 nM brd (TC-5619/Bradanicline)
[13] = 1 uM CNL001, first column so headed
[14] = 1 uM CNL001, second column so headed
[15] = 1 uM brd (TC-5619/Bradanicline)

B1: CODA534: engineered receptor: L131S, S172D in SEQ ID NO: 33 (protein)
chain: MRCSPGGVWLALAASLLHVSLQGEFQRKLYKELVKNYNPLERPVANDSQPLTVYFSLSLLQIMDVDEKNQVLTTNIWLQMSWTDHYLQWNVSEYPGVKTVRFPDGQIWKPDILLYNSADERFDATFHTNVSVNSSGHCQYLPPGIFKSSCPMDLKNFPMDVQTCKLKFGSWDYGGWSLDLQMQEADISGYIPNGEWDLVGIPGKRSERFYECCKEPYPDVTFTVTMRRRMGYYLIQMYIPSLLIVILSWISFWINMDAAPARVGLGITTVLTMTTQSSGSRASLPKVSYVKAIDIWMAVCLLFVFSALLEYAAVNFVSRQHKELLRFRRKRRHHKSPMLNLFQEDEAGEGRFNFSAYGMGPACLQAKDGISVKGANNSNTTNPPPAPSKSPEEMRKLFIQRAKKIDKISRIGFPMAFLIFNMFYWIIYKIVRREDVHNQ
modifications: synthetic sequence of chimeric LGIC
[1]
  YFP fluorescence quenching using CNL001 (percent quench): 23.438%
[2]
  YFP fluorescence quenching using CNL001 (percent quench): 28.59%
[3]
  YFP fluorescence quenching using TC-5619/Bradanicline (percent quench): −1.13%
[4]
  YFP fluorescence quenching using TC-5619/Bradanicline (percent quench): −3.83%
[5]
  YFP fluorescence quenching using CNL001 (percent quench): 56.882%
[6]
  YFP fluorescence quenching using CNL001 (percent quench): 56.777%
[7]
  YFP fluorescence quenching using TC-5619/Bradanicline (percent quench): −3.78%
30 nM TC-6683
  YFP fluorescence quenching using TC-6683 (percent quench): −22.464%
[8]
  YFP fluorescence quenching using CNL001 (percent quench): 65.044%
[9]
  YFP fluorescence quenching using CNL001 (percent quench): 67.373%
50 nM abt (ABT-126)
  YFP fluorescence quenching using ABT-126 (percent quench): −11.96%
[10]
  YFP fluorescence quenching using CNL001 (percent quench): 68.666%
[11]
  YFP fluorescence quenching using CNL001 (percent quench): 70.357%
100 nM CNL002
  YFP fluorescence quenching (percent quench): 14.26%
100 nM abt (ABT-126)
  YFP fluorescence quenching using ABT-126 (percent quench): −10.72%
100 nM azd0328
  YFP fluorescence quenching using AZD-0328 (percent quench): −9.32%
[12]
  YFP fluorescence quenching using TC-5619/Bradanicline (percent quench): −2.03%
300 nM TC-6683
  YFP fluorescence quenching using TC-6683 (percent quench): −23.976%
300 nM abt (ABT-126)
  YFP fluorescence quenching using ABT-126 (percent quench): 11.65%
300 nM azd0328
  YFP fluorescence quenching using AZD-0328 (percent quench): 4.94%
[13]
  YFP fluorescence quenching using CNL001 (percent quench): 73.019%
[14]
  YFP fluorescence quenching using CNL001 (percent quench): 73.527%
1 uM CNL002
  YFP fluorescence quenching (percent quench): 45.55%
1 uM abt (ABT-126)
  YFP fluorescence quenching using ABT-126 (percent quench): −3.06%
[15]
  YFP fluorescence quenching using TC-5619/Bradanicline (percent quench): 1.68%
3 uM TC-6683
  YFP fluorescence quenching using TC-6683 (percent quench): −24.897%
10 uM ach (acetylcholine)
  YFP fluorescence quenching (percent quench): −11.3%
30 uM CNL002
  YFP fluorescence quenching (percent quench): 64.93%
30 uM TC-6683
  YFP fluorescence quenching using TC-6683 (percent quench): −20.474%
30 uM azd0328
  YFP fluorescence quenching using AZD-0328 (percent quench): 60.61%
100 uM TC-6683
  YFP fluorescence quenching using TC-6683 (percent quench): −22.253%
100 uM ach (acetylcholine)
  YFP fluorescence quenching (percent quench): −27.53%
1 mM ach (acetylcholine)
  YFP fluorescence quenching (percent quench): 2.84%
3 mM ach (acetylcholine)
  YFP fluorescence quenching (percent quench): 14.65%
  YFP fluorescence quenching using Facinicline, 30 nM fac: −23.44
  YFP fluorescence quenching using Facinicline, 300 nM fac: 2.75
  YFP fluorescence quenching using Facinicline, 10 uM fac: 69.71
  YFP fluorescence quenching using Facinicline, 30 uM fac: 61.44
  YFP fluorescence quenching using TC-6987, 1 uM tc6987: −20.99
  YFP fluorescence quenching using TC-6987, 10 uM tc6987: −27.62
  YFP fluorescence quenching using TC-6987, 500 uM tc6987: −24.22

B2: CODA535: engineered receptor: L131T, S172D in SEQ ID NO: 33 (protein)
chain: B1 chain with S131T
modifications: synthetic sequence of chimeric LGIC
[1]
  YFP fluorescence quenching using CNL001 (percent quench): 8.736%
[2]
  YFP fluorescence quenching using CNL001 (percent quench): 24.572%
[5]
  YFP fluorescence quenching using CNL001 (percent quench): 60.552%
[6]
  YFP fluorescence quenching using CNL001 (percent quench): 63.09%
30 nM TC-6683
  YFP fluorescence quenching using TC-6683 (percent quench): −29.362%
[8]
  YFP fluorescence quenching using CNL001 (percent quench): 73.242%
[9]
  YFP fluorescence quenching using CNL001 (percent quench): 73.889%
50 nM abt (ABT-126)
  YFP fluorescence quenching using ABT-126 (percent quench): −11.09%
[10]
  YFP fluorescence quenching using CNL001 (percent quench): 76.147%
[11]
  YFP fluorescence quenching using CNL001 (percent quench): 76.21%
100 nM CNL002
  YFP fluorescence quenching (percent quench): 1.23%
100 nM abt (ABT-126)
  YFP fluorescence quenching using ABT-126 (percent quench): −10.37%
100 nM azd0328
  YFP fluorescence quenching using AZD-0328 (percent quench): −7.02%
300 nM TC-6683
  YFP fluorescence quenching using TC-6683 (percent quench): −28.954%
300 nM abt (ABT-126)
  YFP fluorescence quenching using ABT-126 (percent quench): −4%
300 nM azd0328
  YFP fluorescence quenching using AZD-0328 (percent quench): −0.48%
[13]
  YFP fluorescence quenching using CNL001 (percent quench): 78.988%
[14]
  YFP fluorescence quenching using CNL001 (percent quench): 78.818%
1 uM CNL002
  YFP fluorescence quenching (percent quench): 35.77%
1 uM abt (ABT-126)
  YFP fluorescence quenching using ABT-126 (percent quench): 4.05%
3 uM TC-6683
  YFP fluorescence quenching using TC-6683 (percent quench): −23.708%
10 uM ach (acetylcholine)
  YFP fluorescence quenching (percent quench): −12.24%
30 uM CNL002
  YFP fluorescence quenching (percent quench): 68.29%
30 uM TC-6683
  YFP fluorescence quenching using TC-6683 (percent quench): −23.431%
30 uM azd0328
  YFP fluorescence quenching using AZD-0328 (percent quench): 70.16%
100 uM TC-6683
  YFP fluorescence quenching using TC-6683 (percent quench): −18.324%
100 uM ach (acetylcholine)
  YFP fluorescence quenching (percent quench): −26.23%
1 mM ach (acetylcholine)
  YFP fluorescence quenching (percent quench): −1.16%
3 mM ach (acetylcholine)
  YFP fluorescence quenching (percent quench): 2.97%
  YFP fluorescence quenching using Facinicline, 30 nM fac: −21.36
  YFP fluorescence quenching using Facinicline, 300 nM fac: 4.17
  YFP fluorescence quenching using Facinicline, 30 uM fac: 65.94
  YFP fluorescence quenching using TC-6987, 1 uM tc6987: −21.8
  YFP fluorescence quenching using TC-6987, 10 uM tc6987: −27.08
  YFP fluorescence quenching using TC-6987, 500 uM tc6987: −21.56

B3: CODA805: engineered receptor: Y115D, S170T in SEQ ID NO: 33 (protein)
chain: B1 chain with Y115D, S131L, S170T, D172S
modifications: synthetic sequence of chimeric LGIC
[1]
  YFP fluorescence quenching using CNL001 (percent quench): −10.729%
[2]
  YFP fluorescence quenching using CNL001 (percent quench): −15.278%
[3]
  YFP fluorescence quenching using TC-5619/Bradanicline (percent quench): −9.78%
[4]
  YFP fluorescence quenching using TC-5619/Bradanicline (percent quench): −12.06%
[5]
  YFP fluorescence quenching using CNL001 (percent quench): −20.403%
[6]
  YFP fluorescence quenching using CNL001 (percent quench): −14.905%
[7]
  YFP fluorescence quenching using TC-5619/Bradanicline (percent quench): −9.02%
30 nM brd (TC-5619/Bradanicline)
  YFP fluorescence quenching using TC-5619/Bradanicline (percent quench): −16.3%
[8]
  YFP fluorescence quenching using CNL001 (percent quench): −14.303%
[9]
  YFP fluorescence quenching using CNL001 (percent quench): −15.741%
50 nM abt (ABT-126)
  YFP fluorescence quenching using ABT-126 (percent quench): −11.83%
[10]
  YFP fluorescence quenching using CNL001 (percent quench): −12.637%
[11]
  YFP fluorescence quenching using CNL001 (percent quench): −10.606%
100 nM CNL002
  YFP fluorescence quenching (percent quench): −18.17%
100 nM abt (ABT-126)
  YFP fluorescence quenching using ABT-126 (percent quench): −11.5%
100 nM azd0328
  YFP fluorescence quenching using AZD-0328 (percent quench): −0.71%
[12]
  YFP fluorescence quenching using TC-5619/Bradanicline (percent quench): −7.44%
300 nM abt (ABT-126)
  YFP fluorescence quenching using ABT-126 (percent quench): −8.01%
300 nM azd0328
  YFP fluorescence quenching using AZD-0328 (percent quench): −1.73%
300 nM brd (TC-5619/Bradanicline)
  YFP fluorescence quenching using TC-5619/Bradanicline (percent quench): −10.93%
[13]
  YFP fluorescence quenching using CNL001 (percent quench): −13.535%
[14]
  YFP fluorescence quenching using CNL001 (percent quench): −11.335%
1 uM CNL002
  YFP fluorescence quenching (percent quench): −15.2%
1 uM abt (ABT-126)
  YFP fluorescence quenching using ABT-126 (percent quench): −9.34%
[15]
  YFP fluorescence quenching using TC-5619/Bradanicline (percent quench): −4.55%
10 uM ach (acetylcholine)
  YFP fluorescence quenching (percent quench): −0.46%
30 uM CNL002
  YFP fluorescence quenching (percent quench): −14%
30 uM azd0328
  YFP fluorescence quenching using AZD-0328 (percent quench): 47.39%
100 uM ach (acetylcholine)
  YFP fluorescence quenching (percent quench): −4.93%
1 mM ach (acetylcholine)
  YFP fluorescence quenching (percent quench): −11.18%
3 mM ach (acetylcholine)
  YFP fluorescence quenching (percent quench): −3.53%
  YFP fluorescence quenching using Facinicline, 30 nM fac: 38.08
  YFP fluorescence quenching using Facinicline, 300 nM fac: 19.41
  YFP fluorescence quenching using Facinicline, 10 uM fac: 67.33
  YFP fluorescence quenching using Facinicline, 30 uM fac: 79.67
  YFP fluorescence quenching using TC-6987, 1 uM tc6987: 31.9
  YFP fluorescence quenching using TC-6987, 10 uM tc6987: 25.54
  YFP fluorescence quenching using TC-6987, 500 uM tc6987: 21.13
Ligand Facinicline 100 nM
  YFP fluorescence quenching using Facinicline, 100 nM fac: −14.37
